The conditions of the data set: Homo sapiens; pH 7.4; 25 °C; GdnHCl; CD; KPi 50 mM; structure 1TIT.

From FireProtDB (doi:10.1002/pro.346) come the findings set out here.

For the substance Titin Y12685F, Q8WZ42, the “ddG of mutation (higher = less stable)” value turned out to be 0.4 kcal/mol, the denaturant m value was determined as 2.2 kcal/mol/M, the “denaturant midpoint (higher = more stable)” value stood at 2.5 M and the unfolding free energy came to 5.5 kcal/mol.
On the same counts, the results for Titin Y12685G, Q8WZ42 are 0.8 kcal/mol, 2.2 kcal/mol/M, 2.3 M and 5.1 kcal/mol.
On the same counts, the results for Titin Y12685P, Q8WZ42 are 2.2 kcal/mol, 2.2 kcal/mol/M, 1.7 M and 3.7 kcal/mol.
For the substance Titin Y12685S, Q8WZ42, the “ddG of mutation (higher = less stable)” value is 0.2 kcal/mol, the denaturant m value is 2.2 kcal/mol/M, the “denaturant midpoint (higher = more stable)” value worked out at 2.6 M and the unfolding free energy was 5.7 kcal/mol.
